From the supplement of paper PMC10567573 come the findings set out here.

The labels stand for the following.
B1: KLHL12 (parent)
chain: SMTTPRCYVGATVLRGRLYAIAGY
B2: PDLIM7 (parent)
chain: AAGGVPGGGSNNGKTPVCHQCHKV
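Also: lentivirally expressed fusions sorted by FACS into six bins by GFP to DsRed ratio, PSI derived from sequencing read proportions per bin multiplied by bin number.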

The variants in one series derive from B1. The series can be described thus: protein stability index of a GFP-peptide fusion (GPS, HEK-293T) (PSI 1-6); higher = more stable. The conditions noted are these: c terminus: a fixed tail appended.
Consider SMTTPRCYVGATVLRGRLWAIAGY [Y19W], for which the protein stability index was determined as 3.23.
Still for that read-out and setting: the figure for SMTTPRCYVGATVLRGRLSAIAGY [Y19S] is 2; for SMTTPRCYVGATVLRGRLNAIAGY [Y19N] it is 2.66; for SMTTPRCYVGATVLRGRLPAIAGY [Y19P] it is 2.22.
Same read-out and setting: the figure for SMTTPRCYVGATVLRGRLYAIMGY [A22M] is 2.01; for SMTTPRCYVGATVLRGRLYAIRGY [A22R] it is 2.86.
Take SMTTPRCYVGATVLRGRLYAIKGY [A22K]: the protein stability index came out at 1.52.
Take SMTTPRCYVGATVLRGRLYAINGY [A22N]: the protein stability index was determined as 1.3.
On the same count and under the same terms, the figure for SMTTPRCYVGATVLRGRLYAIHGY [A22H] is 2.68; for SMTTPRCYVGATVLRGRLYAIQGY [A22Q] it is 1.52; for SMTTPREYVGATVLRGRLYAIAGY [C7E] it is 1.47.
The same measure, in the same setting: the figure for SMTTPRMYVGATVLRGRLYAIAGY [C7M] is 4.32; for SMTTPRKYVGATVLRGRLYAIAGY [C7K] it is 2.18; for SMTTPRSYVGATVLRGRLYAIAGY [C7S] it is 3.15.
The same measure, in the same setting: the result for SMTTPRNYVGATVLRGRLYAIAGY [C7N] reads 1.62; that for SMTTPRGYVGATVLRGRLYAIAGY [C7G], 3.82.
For the variant SMTTPRVYVGATVLRGRLYAIAGY [C7V], the protein stability index was determined as 2.13.
In the case of SMTTPRFYVGATVLRGRLYAIAGY [C7F], the protein stability index came to 3.95.
As to SMTTPRQYVGATVLRGRLYAIAGY [C7Q], the protein stability index came to 1.71.
On to SMTFPRCYVGATVLRGRLYAIAGY [T4F], for which the protein stability index was determined as 2.12.
Still for that read-out and setting: the result for SMTSPRCYVGATVLRGRLYAIAGY [T4S] reads 2.3; that for SMTYPRCYVGATVLRGRLYAIAGY [T4Y], 2.75; that for SMTHPRCYVGATVLRGRLYAIAGY [T4H], 3.03.
On to SMTTPRCYVGATVIRGRLYAIAGY [L14I], for which the protein stability index amounted to 1.99.
The same measure, in the same setting: the result for SMTTPRCYVGATVFRGRLYAIAGY [L14F] reads 1.77; that for SMTTPRCYLGATVLRGRLYAIAGY [V9L], 3.27.
In the case of SMTTPRCYNGATVLRGRLYAIAGY [V9N], the protein stability index was 2.26.
Still for that read-out and setting: the result for SMTTPRCYHGATVLRGRLYAIAGY [V9H] reads 2.62.
On the same count and under the same terms, the figure for SMTTPRCYIGATVLRGRLYAIAGY [V9I] is 2.74.
On the same count and under the same terms, the figure for SMTTPRCYTGATVLRGRLYAIAGY [V9T] is 1.74; for SMTTPRCYGGATVLRGRLYAIAGY [V9G] it is 1.93.
As for SMTTPRCYEGATVLRGRLYAIAGY [V9E], the protein stability index is 2.3.
Regarding SMTTPRCYSGATVLRGRLYAIAGY [V9S], the protein stability index stood at 1.82.
Still for that read-out and setting: the figure for SMTTPRCYDGATVLRGRLYAIAGY [V9D] is 1.4.
The same measure, in the same setting: the figure for SMTTPRCYQGATVLRGRLYAIAGY [V9Q] is 1.96.
As to SMTTPQCYVGATVLRGRLYAIAGY [R6Q], the protein stability index was 2.54.
Still for that read-out and setting: the figure for SMTTPDCYVGATVLRGRLYAIAGY [R6D] is 2.56.
Still for that read-out and setting: the result for SMTTPPCYVGATVLRGRLYAIAGY [R6P] reads 1.83; that for SMTTPICYVGATVLRGRLYAIAGY [R6I], 1.55; that for SMVTPRCYVGATVLRGRLYAIAGY [T3V], 2.36.
The same measure, in the same setting: the result for SMFTPRCYVGATVLRGRLYAIAGY [T3F] reads 1.62; that for SMHTPRCYVGATVLRGRLYAIAGY [T3H], 2.34.
For the variant SMETPRCYVGATVLRGRLYAIAGY [T3E], the protein stability index came to 1.65.
On the same count and under the same terms, the result for SMITPRCYVGATVLRGRLYAIAGY [T3I] reads 1.02; that for SMMTPRCYVGATVLRGRLYAIAGY [T3M], 1.99; that for SMTTPRCNVGATVLRGRLYAIAGY [Y8N], 1.5.
The same measure, in the same setting: the figure for SMTTPRCRVGATVLRGRLYAIAGY [Y8R] is 1.21; for SMTTPRCFVGATVLRGRLYAIAGY [Y8F] it is 2.98.
Still for that read-out and setting: the figure for SMTTPRCMVGATVLRGRLYAIAGY [Y8M] is 1.57; for SMTTPRCYVGATVLRGRQYAIAGY [L18Q] it is 1.81; for SMTTPRCYVGATVLRGRHYAIAGY [L18H] it is 2.1.
SMTTPRCYVGATVLRGRAYAIAGY [L18A]: the protein stability index was determined as 1.49.
The same measure, in the same setting: the result for SMTTPRCYVGATVLRGRGYAIAGY [L18G] reads 1.7; that for SMTTPRCYVGATVLRGRIYAIAGY [L18I], 1.68.
Turning to SMTTPRCYVGATVLRGCLYAIAGY [R17C], the protein stability index is 2.04.
Same read-out and setting: the result for SMTTPRCYVGATVLRGGLYAIAGY [R17G] reads 2.27.
The same measure, in the same setting: the figure for SMTTPRCYVGATVLRGSLYAIAGY [R17S] is 3.1; for SMTTPRCYVGATVLRGALYAIAGY [R17A] it is 1.73.
As for SMTTPRCYVGATVLRGELYAIAGY [R17E], the protein stability index came out at 1.68.
Still for that read-out and setting: the result for SMTTPRCYVGATVLRGFLYAIAGY [R17F] reads 3.17; that for SMTTPRCYVGATVLRGPLYAIAGY [R17P], 2.42.
For SMTTPRCYVGATVLRGHLYAIAGY [R17H], the protein stability index was 2.17.
On the same count and under the same terms, the figure for SMTTPRCYVGATVLRGQLYAIAGY [R17Q] is 1.85; for SMTTPRCYVGATVLRGILYAIAGY [R17I] it is 3.46.
Same read-out and setting: the result for SMTTTRCYVGATVLRGRLYAIAGY [P5T] reads 2.22.
Turning to SMTTQRCYVGATVLRGRLYAIAGY [P5Q], the protein stability index came to 2.71.
As for SMTTIRCYVGATVLRGRLYAIAGY [P5I], the protein stability index was 1.79.
For the variant SMTTNRCYVGATVLRGRLYAIAGY [P5N], the protein stability index was determined as 2.22.
Same read-out and setting: the result for SMTTWRCYVGATVLRGRLYAIAGY [P5W] reads 2.99.
The same measure, in the same setting: the figure for SMTTSRCYVGATVLRGRLYAIAGY [P5S] is 3.27; for SMTTHRCYVGATVLRGRLYAIAGY [P5H] it is 4.85.

Variants of B2 are the subject of a further series. Described as above. The conditions noted are these: c terminus: a fixed tail appended.
Regarding AAGGVPGGGQNNGKTPVCHQCHKV [S10Q], the protein stability index is 3.02.
Turning to AAGGVPGGGLNNGKTPVCHQCHKV [S10L], the protein stability index was determined as 2.47.
For the variant AAGGVPGGGNNNGKTPVCHQCHKV [S10N], the protein stability index worked out at 3.32.
On the same count and under the same terms, the result for AAGGVPGGGFNNGKTPVCHQCHKV [S10F] reads 2.02; that for AAGGVPGGGPNNGKTPVCHQCHKV [S10P], 2.9; that for AAGGVPGGGKNNGKTPVCHQCHKV [S10K], 3.18.
On to AAGGVPGGGCNNGKTPVCHQCHKV [S10C], for which the protein stability index amounted to 2.19.
The same measure, in the same setting: the result for AAGGVPGGGTNNGKTPVCHQCHKV [S10T] reads 2.67.
Same read-out and setting: the figure for AAGGVPGGGDNNGKTPVCHQCHKV [S10D] is 3.96.
Same read-out and setting: the result for AAGGVPGGGHNNGKTPVCHQCHKV [S10H] reads 2.21.
As to AAGGVPGGGINNGKTPVCHQCHKV [S10I], the protein stability index came to 2.37.
Same read-out and setting: the figure for AAGGVPGGNSNNGKTPVCHQCHKV [G9N] is 3.21.
On to AAGGVPGGMSNNGKTPVCHQCHKV [G9M], for which the protein stability index amounted to 3.22.
Turning to AAGGVPGGYSNNGKTPVCHQCHKV [G9Y], the protein stability index worked out at 3.56.
Regarding AAGGVPGGWSNNGKTPVCHQCHKV [G9W], the protein stability index worked out at 2.98.
Same read-out and setting: the result for AAGGVPGGKSNNGKTPVCHQCHKV [G9K] reads 3.64; that for AAGGVPGGTSNNGKTPVCHQCHKV [G9T], 2.79.
On the same count and under the same terms, the figure for AAGGVPGGSSNNGKTPVCHQCHKV [G9S] is 2.65; for AAGGVPGGPSNNGKTPVCHQCHKV [G9P] it is 3.69.
AAGGVPGGRSNNGKTPVCHQCHKV [G9R]: the protein stability index worked out at 3.06.
In the case of AAGGVPGGVSNNGKTPVCHQCHKV [G9V], the protein stability index stood at 2.59.
Still for that read-out and setting: the figure for AAGGVPGGLSNNGKTPVCHQCHKV [G9L] is 3.19; for AAGGVPGGQSNNGKTPVCHQCHKV [G9Q] it is 3.6.
